In patent US20210317176A1 (Amgen, published 2021):

Molecular target: beta-klotho
Test: cell-based or functional assay

Binder | EC50 (ELK-luciferase assay) [pM]
human FGF21 (wild-type mature FGF21 polypeptide) (ligand) HPIPDSSPLLQFGGQVRQRYLYTDDAQQTEAHLEIREDGTVGGAADQSPESLLQLKALKPGVIQILGVKTSRFLCQRPDGALYGSLHFDPEACSFRELLLEDGYNVYQSEAHGLPLHLPGNKSPHRDPAPRGPARFLPLPGLPPAPPEPPGILAPQPPDVGSSDPLSMVGPSQGRSPSYAS | 400

Molecular target: beta-klotho
Test: cell-based or functional assay
Remark: another data set of the same source

Binder | Efficacy (ELK-luciferase assay, relative to wild-type FGF21) [%]
FGF21 truncation mutant 7-181 (ligand) SPLLQFGGQVRQRYLYTDDAQQTEAHLEIREDGTVGGAADQSPESLLQLKALKPGVIQILGVKTSRFLCQRPDGALYGSLHFDPEACSFRELLLEDGYNVYQSEAHGLPLHLPGNKSPHRDPAPRGPARFLPLPGLPPAPPEPPGILAPQPPDVGSSDPLSMVGPSQGRSPSYAS | 74.2
FGF21 truncation mutant 1-167 (ligand) HPIPDSSPLLQFGGQVRQRYLYTDDAQQTEAHLEIREDGTVGGAADQSPESLLQLKALKPGVIQILGVKTSRFLCQRPDGALYGSLHFDPEACSFRELLLEDGYNVYQSEAHGLPLHLPGNKSPHRDPAPRGPARFLPLPGLPPAPPEPPGILAPQPPDVGSSDPLS | ~20
FGF21 truncation mutant 4-181 (ligand) PDSSPLLQFGGQVRQRYLYTDDAQQTEAHLEIREDGTVGGAADQSPESLLQLKALKPGVIQILGVKTSRFLCQRPDGALYGSLHFDPEACSFRELLLEDGYNVYQSEAHGLPLHLPGNKSPHRDPAPRGPARFLPLPGLPPAPPEPPGILAPQPPDVGSSDPLSMVGPSQGRSPSYAS | 117
FGF21 truncation mutant 1-176 (ligand) HPIPDSSPLLQFGGQVRQRYLYTDDAQQTEAHLEIREDGTVGGAADQSPESLLQLKALKPGVIQILGVKTSRFLCQRPDGALYGSLHFDPEACSFRELLLEDGYNVYQSEAHGLPLHLPGNKSPHRDPAPRGPARFLPLPGLPPAPPEPPGILAPQPPDVGSSDPLSMVGPSQGRS | 105
FGF21 truncation mutant 1-166 (ligand) HPIPDSSPLLQFGGQVRQRYLYTDDAQQTEAHLEIREDGTVGGAADQSPESLLQLKALKPGVIQILGVKTSRFLCQRPDGALYGSLHFDPEACSFRELLLEDGYNVYQSEAHGLPLHLPGNKSPHRDPAPRGPARFLPLPGLPPAPPEPPGILAPQPPDVGSSDPL | ~20
FGF21 truncation mutant 2-181 (ligand) PIPDSSPLLQFGGQVRQRYLYTDDAQQTEAHLEIREDGTVGGAADQSPESLLQLKALKPGVIQILGVKTSRFLCQRPDGALYGSLHFDPEACSFRELLLEDGYNVYQSEAHGLPLHLPGNKSPHRDPAPRGPARFLPLPGLPPAPPEPPGILAPQPPDVGSSDPLSMVGPSQGRSPSYAS | 112
FGF21 truncation mutant 1-180 (ligand) HPIPDSSPLLQFGGQVRQRYLYTDDAQQTEAHLEIREDGTVGGAADQSPESLLQLKALKPGVIQILGVKTSRFLCQRPDGALYGSLHFDPEACSFRELLLEDGYNVYQSEAHGLPLHLPGNKSPHRDPAPRGPARFLPLPGLPPAPPEPPGILAPQPPDVGSSDPLSMVGPSQGRSPSYA | 93.2
FGF21 truncation mutant 1-172 (ligand) HPIPDSSPLLQFGGQVRQRYLYTDDAQQTEAHLEIREDGTVGGAADQSPESLLQLKALKPGVIQILGVKTSRFLCQRPDGALYGSLHFDPEACSFRELLLEDGYNVYQSEAHGLPLHLPGNKSPHRDPAPRGPARFLPLPGLPPAPPEPPGILAPQPPDVGSSDPLSMVGPS | 97.5
FGF21 truncation mutant 5-181 (ligand) DSSPLLQFGGQVRQRYLYTDDAQQTEAHLEIREDGTVGGAADQSPESLLQLKALKPGVIQILGVKTSRFLCQRPDGALYGSLHFDPEACSFRELLLEDGYNVYQSEAHGLPLHLPGNKSPHRDPAPRGPARFLPLPGLPPAPPEPPGILAPQPPDVGSSDPLSMVGPSQGRSPSYAS | 120
FGF21 truncation mutant 1-165 (ligand) HPIPDSSPLLQFGGQVRQRYLYTDDAQQTEAHLEIREDGTVGGAADQSPESLLQLKALKPGVIQILGVKTSRFLCQRPDGALYGSLHFDPEACSFRELLLEDGYNVYQSEAHGLPLHLPGNKSPHRDPAPRGPARFLPLPGLPPAPPEPPGILAPQPPDVGSSDP | ~10
FGF21 truncation mutant 1-169 (ligand) HPIPDSSPLLQFGGQVRQRYLYTDDAQQTEAHLEIREDGTVGGAADQSPESLLQLKALKPGVIQILGVKTSRFLCQRPDGALYGSLHFDPEACSFRELLLEDGYNVYQSEAHGLPLHLPGNKSPHRDPAPRGPARFLPLPGLPPAPPEPPGILAPQPPDVGSSDPLSMV | 84.9
FGF21 truncation mutant 1-177 (ligand) HPIPDSSPLLQFGGQVRQRYLYTDDAQQTEAHLEIREDGTVGGAADQSPESLLQLKALKPGVIQILGVKTSRFLCQRPDGALYGSLHFDPEACSFRELLLEDGYNVYQSEAHGLPLHLPGNKSPHRDPAPRGPARFLPLPGLPPAPPEPPGILAPQPPDVGSSDPLSMVGPSQGRSP | 112
FGF21 truncation mutant 1-173 (ligand) HPIPDSSPLLQFGGQVRQRYLYTDDAQQTEAHLEIREDGTVGGAADQSPESLLQLKALKPGVIQILGVKTSRFLCQRPDGALYGSLHFDPEACSFRELLLEDGYNVYQSEAHGLPLHLPGNKSPHRDPAPRGPARFLPLPGLPPAPPEPPGILAPQPPDVGSSDPLSMVGPSQ | 96.1
FGF21 truncation mutant 8-181 (ligand) PLLQFGGQVRQRYLYTDDAQQTEAHLEIREDGTVGGAADQSPESLLQLKALKPGVIQILGVKTSRFLCQRPDGALYGSLHFDPEACSFRELLLEDGYNVYQSEAHGLPLHLPGNKSPHRDPAPRGPARFLPLPGLPPAPPEPPGILAPQPPDVGSSDPLSMVGPSQGRSPSYAS | 24.9
FGF21 truncation mutant 3-181 (ligand) IPDSSPLLQFGGQVRQRYLYTDDAQQTEAHLEIREDGTVGGAADQSPESLLQLKALKPGVIQILGVKTSRFLCQRPDGALYGSLHFDPEACSFRELLLEDGYNVYQSEAHGLPLHLPGNKSPHRDPAPRGPARFLPLPGLPPAPPEPPGILAPQPPDVGSSDPLSMVGPSQGRSPSYAS | 130
FGF21 truncation mutant 1-178 (ligand) HPIPDSSPLLQFGGQVRQRYLYTDDAQQTEAHLEIREDGTVGGAADQSPESLLQLKALKPGVIQILGVKTSRFLCQRPDGALYGSLHFDPEACSFRELLLEDGYNVYQSEAHGLPLHLPGNKSPHRDPAPRGPARFLPLPGLPPAPPEPPGILAPQPPDVGSSDPLSMVGPSQGRSPS | 95
FGF21 truncation mutant 1-171 (ligand) HPIPDSSPLLQFGGQVRQRYLYTDDAQQTEAHLEIREDGTVGGAADQSPESLLQLKALKPGVIQILGVKTSRFLCQRPDGALYGSLHFDPEACSFRELLLEDGYNVYQSEAHGLPLHLPGNKSPHRDPAPRGPARFLPLPGLPPAPPEPPGILAPQPPDVGSSDPLSMVGP | 113
FGF21 truncation mutant 1-174 (ligand) HPIPDSSPLLQFGGQVRQRYLYTDDAQQTEAHLEIREDGTVGGAADQSPESLLQLKALKPGVIQILGVKTSRFLCQRPDGALYGSLHFDPEACSFRELLLEDGYNVYQSEAHGLPLHLPGNKSPHRDPAPRGPARFLPLPGLPPAPPEPPGILAPQPPDVGSSDPLSMVGPSQG | 105
FGF21 truncation mutant 9-181 (ligand) LLQFGGQVRQRYLYTDDAQQTEAHLEIREDGTVGGAADQSPESLLQLKALKPGVIQILGVKTSRFLCQRPDGALYGSLHFDPEACSFRELLLEDGYNVYQSEAHGLPLHLPGNKSPHRDPAPRGPARFLPLPGLPPAPPEPPGILAPQPPDVGSSDPLSMVGPSQGRSPSYAS | 12.5
